B1: TOG array regulator of axonemal microtubules protein 1 (Homo sapiens), Q9Y4F4 (parent)
chain: MAAAPSALLLLPPFPVLSTYRLQSRSRPSAPETDDSRVGGIMRGEKNYYFRGAAGDHGSCPTTTSPLASALLMPSEAVSSSWSESGGGLSGGDEEDTRLLQLLRTARDPSEAFQALQAALPRRGGRLGFPRRKEALYRALGRVLVEGGSDEKRLCLQLLSDVLRGQGEAGQLEEAFSLALLPQLVVSLREENPALRKDALQILHICLKRSPGEVLRTLIQQGLESTDARLRASTALLLPILLTTEDLLLGLDLTEVIISLARKLGDQETEEESETAFSALQQIGERLGQDRFQSYISRLPSALRRHYNRRLESQFGSQVPYYLELEASGFPEDPLPCAVTLSNSNLKFGIIPQELHSRLLDQEDYKNRTQAVEELKQVLGKFNPSSTPHSSLVGFISLLYNLLDDSNFKVVHGTLEVLHLLVIRLGEQVQQFLGPVIAASVKVLADNKLVIKQEYMKIFLKLMKEVGPQQVLCLLLEHLKHKHSRVREEVVNICICSLLTYPSEDFDLPKLSFDLAPALVDSKRRVRQAALEAFAVLASSMGSGKTSILFKAVDTVELQDNGDGVMNAVQARLARKTLPRLTEQGFVEYAVLMPSSAGGRSNHLAHGADTDWLLAGNRTQSAHCHCGDHVRDSMHIYGSYSPTICTRRVLSAGKGKNKLPWENEQPGIMGENQTSTSKDIEQFSTYDFIPSAKLKLSQGMPVNDDLCFSRKRVSRNLFQNSRDFNPDCLPLCAAGTTGTHQTNLSGKCAQLGFSQICGKTGSVGSDLQFLGTTSSHQEKVYASLNFGSKTQQTFGSQTECTSSNGQNPSPGAYILPSYPVSSPRTSPKHTSPLIISPKKSQDNSVNFSNSWPLKSFEGLSKPSPQKKLVSQKSSDPTGRNHGENSQEKPPVQLTPALVRSPSSRRGLNGTKPVPPIPRGISLLPDKADLSTVGHKKKEPDDIWKCEKDSLPIDLSELNFKDKDLDQEEMHSSLRSLRNSAAKKRAKLSGSTSDLESPDSAMKLDLTMDSPSLSSSPNINSYSESGVYSQESLTSSLSTTPQGKRIMSDIFPTFGSKPCPTRLSSAKKKISHIAEQSPSAGSSSNPQQISSFDFTTTKALSEDSVVVVGKGVFGSLSSAPATCSQSVISSVENGDTFSIKQSIEPPSGIYGRSVQQNISSYLDVENEKDAKVSISKSTYNKMRQKRKEEKELFHNKDCEKKEKNSWERMRHTGTEKMASESETPTGAISQYKERMPSVTHSPEIMDLSELRPFSKPEIALTEALRLLADEDWEKKIEGLNFIRCLAAFHSEILNTKLHETNFAVVQEVKNLRSGVSRAAVVCLSDLFTYLKKSMDQELDTTVKVLLHKAGESNTFIREDVDKALRAMVNNVTPARAVVSLINGGQRYYGRKMLFFMMCHPNFEKMLEKYVPSKDLPYIKDSVRNLQQKGLGEIPLDTPSAKGRRSHTGSVGNTRSSSVSRDAFNSAERAVTEVREVTRKSVPRNSLESAEYLKLITGLLNAKDFRDRINGIKQLLSDTENNQDLVVGNIVKIFDAFKSRLHDSNSKVNLVALETMHKMIPLLRDHLSPIINMLIPAIVDNNLNSKNPGIYAAATNVVQALSQHVDNYLLLQPFCTKAQFLNGKAKQDMTEKLADIVTELYQRKPHATEQKVLVVLWHLLGNMTNSGSLPGAGGNIRTATAKLSKALFAQMGQNLLNQAASQPPHIKKSLEELLDMTILNEL
partner: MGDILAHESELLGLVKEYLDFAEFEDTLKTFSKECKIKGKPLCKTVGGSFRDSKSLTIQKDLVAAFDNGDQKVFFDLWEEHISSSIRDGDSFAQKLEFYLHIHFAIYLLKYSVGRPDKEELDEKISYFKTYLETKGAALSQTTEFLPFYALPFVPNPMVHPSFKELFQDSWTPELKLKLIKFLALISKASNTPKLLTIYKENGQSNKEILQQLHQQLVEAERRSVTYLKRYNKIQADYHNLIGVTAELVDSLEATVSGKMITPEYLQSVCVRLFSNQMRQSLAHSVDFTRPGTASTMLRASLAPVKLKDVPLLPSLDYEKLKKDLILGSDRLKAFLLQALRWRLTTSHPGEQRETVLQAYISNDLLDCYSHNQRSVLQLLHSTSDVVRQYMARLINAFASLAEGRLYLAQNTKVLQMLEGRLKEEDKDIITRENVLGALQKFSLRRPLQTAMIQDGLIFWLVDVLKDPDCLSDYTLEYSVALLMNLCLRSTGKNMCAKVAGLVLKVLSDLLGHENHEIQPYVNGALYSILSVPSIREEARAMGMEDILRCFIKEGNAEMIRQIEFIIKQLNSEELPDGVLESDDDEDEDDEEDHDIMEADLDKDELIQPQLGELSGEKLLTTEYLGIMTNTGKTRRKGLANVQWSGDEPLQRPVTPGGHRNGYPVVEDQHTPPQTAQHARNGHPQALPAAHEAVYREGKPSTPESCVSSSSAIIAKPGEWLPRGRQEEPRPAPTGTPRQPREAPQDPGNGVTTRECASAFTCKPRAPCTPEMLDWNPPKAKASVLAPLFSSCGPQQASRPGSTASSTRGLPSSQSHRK

Variants of: B1
Conditions: with armc9_human ARMC9, Q7Z3E5

effect of a mutation on the interaction	Variant
disrupting interaction strength	R368W
disrupting interaction strength	L375P
with no effect	R1311C

Source: IntAct's records for PubMed 32453716
